The supplement of paper PMC12042874
± gives the uncertainty stated by the source.

experiment: amyloid nucleation score (Sup35N fusion, yeast selection) (log enrichment); library NNK1; higher = more nucleation; inactive = no reads after selection
Method in brief: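 For the nucleation score, DiMSum gave the log enrichment of output over input reads, centred on the mode score of non-aggregating sequences. Psi-negative yeast expressing Sup35N fused to peptides of 20 random codons were induced with 100 μM copper sulfate for 24 hours and grown 7 days at 30°C on medium lacking adenine and uracil. Input and output plasmid inserts were Illumina-sequenced, and sequences with under 100 input reads were excluded.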

Point of comparison: MKDVILRTWYLRQGEGWGAS, amyloid nucleation score 0.026 ± 0.4. Against it:
- MDSFVITSFSYNTSLTMRIL — higher, 1.4 ± 0.42
- MDWYIVYRPAYTLLCRIHVR — higher, 1.16 ± 0.39
- MECSASYLYVWKIANTLGRM — within error, 0.637 ± 0.31
- MEFNMWYLFGDLLVTLDWPK — within error, 0.044 ± 0.45
- MEHYLACIWITHVCF — within error, 0.117 ± 1.1
- MEPFSAC — within error, -0.276 ± 1.9
- MFFGWLFHYLLSSTYMFVSL — within error, -0.266 ± 0.72
- MFFSCGVLTILNWIKLKMAR — within error, -0.839 ± 1.1
- MFGGYRSC — within error, 0.159 ± 1.2
- MFIVYRMDLEFM — higher, 1.64 ± 0.51
- MFRRFSWGR — within error, -0.198 ± 0.44
- MFRWHVLGKKITP — within error, -0.067 ± 0.37
- MFTNLQIWWDSMACYFWDVF — higher, 0.923 ± 0.48
- MFVGGRTNTQMYHMDVVPFQ — higher, 1.13 ± 0.63
- MGCLN — within error, 0.082 ± 0.62
- MGGWNGNGIFCAYIYM — within error, 0.344 ± 0.15
- MGKNMVANWILHHRHSQ — within error, -0.343 ± 0.46
- MGTRILSRTFVVYTTPGYCW — within error, 0.093 ± 0.27
- MGTSITI — within error, -0.202 ± 0.84
- MGVVRLAS — within error, -0.149 ± 0.27
- MHLCINWSLSCRAADQFMRR — higher, 3.53 ± 0.17
- MHPAVVYCPLIK — within error, 0.735 ± 0.64
- MHTKRTTDNKYGSY — within error, -0.208 ± 0.38
- MIMMDLHCGVILRALGEHGP — higher, 3.34 ± 0.11
- MIRGLPQMMNWVP — within error, 0.758 ± 0.38
- MIWPDGQRLMRPTLRMYKTS — within error, 0.279 ± 0.36
- MIWVWNRYIIPYFRFCGATL — within error, 0.268 ± 1.2
- MKLWMEMRWGRG — higher, 5.41 ± 0.064
- MKVDNSVLMPATTHQRNMQG — within error, -0.211 ± 0.67
- MLEGMRRWNNIALVVIRGVG — within error, -0.556 ± 1.1
- MLGCVGSCTR — within error, -1.08 ± 1.1
- MLLACPHLTGYGVILIASIA — within error, -0.292 ± 0.36
- MLLALVIEADRRRWSVNGMY — higher, 2.93 ± 0.18
- MLLSWMNAMVFTRRVHLAEP — within error, -0.469 ± 1.2
- MLLWQRSGMQLLAGLSHRVR — within error, -0.702 ± 0.99
- MLSVRTGISGLQSVRTKALA — within error, -0.33 ± 0.51
- MLSYVRIGSDQDVVWSDLQR — higher, 2 ± 0.1
- MLTRLHVSLSCHFYLWRSL — within error, 0.838 ± 0.56
- MLVCDWKTDLGNI — within error, 0.811 ± 0.64
- MLVRG — within error, -0.351 ± 0.49
- MMAFCS — within error, 0.264 ± 0.39
- MMAFDRRCLGFPMNVGYD — higher, 1.07 ± 0.46
- MMDVV — within error, -0.756 ± 0.58
- MMFAKDSI — within error, 0.372 ± 0.47
- MMGIMYLWTWYCN — within error, 0.385 ± 0.58
- MMGLY — within error, -0.038 ± 0.32
- MMGNNQRSPYDMDREASITF — within error, 0.64 ± 0.43
- MMPVRWHMFDAWDLWIDLER — within error, -0.456 ± 0.88
- MMTGFNNIPTIKQLGSCAHY — within error, 0.291 ± 0.97
- MMWLCAVFPGIRFYGYPGLN — within error, -1.88 ± 2.7
- MNALGSTYWDQQSAQQSMWS — higher, 4.92 ± 0.068
- MNCLTSRILNVLIGSGCN — higher, 3.33 ± 0.076
- MNFCYLCTTWWSYYFQ — within error, -0.38 ± 0.32
- MNLSVSVPVHTRLDMMFM — higher, 5.616 ± 0.049
- MNLSYSTIVIYHRNEDCNVY — higher, 4.08 ± 0.094
- MNPTFILRTGSRGGDYWS — within error, 0.206 ± 0.52
- MNSVGAGWFGLRCNYRAHEA — within error, 0.252 ± 1.1
- MNTSVAWMVR — within error, -0.149 ± 0.32
- MNVVILEAYGRSPIGMQAFF — higher, 2.59 ± 0.18
- MPGSTLLSAKMTSLGGTALW — within error, 0.392 ± 0.4
- MPKRSKHFVNWVVNA — within error, -0.265 ± 0.29
- MQVVVYKYLTMYQR — higher, 1.29 ± 0.76
- MQWPYCGMTFCYTW — within error, -0.047 ± 0.57
- MRAFGVNGTVQRWWGSCSRF — within error, 0.766 ± 0.46
- MREDIAFDFW — higher, 4.22 ± 0.15
- MRGMADYC — within error, -0.251 ± 0.88
- MRIPVRLVV — within error, 0.027 ± 0.54

With MFGAHLA the amyloid nucleation score was “inactive”.
For MFLYLLVVTP, the amyloid nucleation score was “inactive”.
With MLQFFVSWGILVKICVWTVG the amyloid nucleation score was “inactive”.
In the case of MPTLNYIVKCSREVTGGILD, the amyloid nucleation score is reported as “inactive”.
